In patent US20100233154A1, “TARGETED BINDING AGENTS DIRECTED TO HEPARANASE AND USES THEREOF 463” (MedImmune Limited, priority 2008, published 2010):

Tests used:
[1] = target: T1, recombinant heparanase captured with rabbit anti-heparanase antibody (Homo sapiens, UniProt Q9Y251); experiment: ELISA binding to antibody-captured heparanase; conditions: antibody capture
T1 construct: Heparanase 8 and 50 kDa sub-units were cloned into pacGP67 as Sma 1-EcoR1 fragments; made in house; host or cells: Hi5 insect cells, baculovirus (pFastBac Dual)
T1 sequence (Q9Y251 158-543 limits assumed): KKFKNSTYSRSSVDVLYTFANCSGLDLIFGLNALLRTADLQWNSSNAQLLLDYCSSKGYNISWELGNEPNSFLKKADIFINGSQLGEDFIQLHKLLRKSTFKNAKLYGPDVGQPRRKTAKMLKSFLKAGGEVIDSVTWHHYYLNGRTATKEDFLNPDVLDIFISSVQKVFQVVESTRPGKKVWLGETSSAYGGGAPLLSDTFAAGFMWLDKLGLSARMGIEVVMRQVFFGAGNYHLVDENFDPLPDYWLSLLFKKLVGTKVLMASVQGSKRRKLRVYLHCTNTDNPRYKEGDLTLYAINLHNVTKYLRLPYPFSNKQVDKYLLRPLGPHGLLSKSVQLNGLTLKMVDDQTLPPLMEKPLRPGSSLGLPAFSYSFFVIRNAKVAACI
T1 sequence (Q9Y251 36-109 limits assumed): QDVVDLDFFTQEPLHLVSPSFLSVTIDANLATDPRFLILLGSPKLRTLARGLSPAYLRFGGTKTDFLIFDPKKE
Protocol: Titres of antibodies from Campaigns 1 and 2 were determined in an ELISA. Costar 3368 medium binding plates were coated directly with recombinant human heparanase or plates were coated with Rabbit anti-heparanase antibody (Raybiotech, Cat. IP-14-155) to capture recombinant heparanase. Directly coated heparanase was detected in three separate plates by mouse (InSight Cat. INS-26-1-0000), goat (Santa Cruz, Cat. sc26136) or rabbit (Raybiotech, Cat. IP-14-155) anti-heparanase antibodies, and quantified using appropriate secondary antibodies. Antibody captured heparanase was detected using mouse anti-heparanase (Insight Cat. INS-26-1-0000). At the end of the immunisation program, fusions were performed using mouse myeloma cells and lymphocytes isolated from the spleens and lymph nodes of the immunised mice by means of electroporation, as described in Example 2.
Initial screening to detect antibodies binding to human heparanase in both direct coating and antibody capture ELISAs as described above identified 800 hybridomas for further testing; 535 IgG2 from Campaign 1 and 2 and 265 IgG4 from Campaign 2. Enzyme inhibition assays and cross species binding to cynomolgus and murine heparanase, in an antibody capture ELISA, identifed 12 antibodies that were taken forward for sub-cloning to provide purified antibodies for further analysis. Subsequently, confirmation of activity against human heparanase (FIGS. 3 and 4) and inhibition of recombinant cynomolgus and murine heparanase activity in the HS-cryptate degradation assay (FIG. 5a-c), together with sequence analysis, identified 8 antibodies that are described in the table below.

human heparanase = target: T2, human heparanase (Homo sapiens, UniProt Q9Y251); experiment: Cross species capture ELISA, human heparanase; assay type: binding
T2 sequence (Q9Y251 36-543): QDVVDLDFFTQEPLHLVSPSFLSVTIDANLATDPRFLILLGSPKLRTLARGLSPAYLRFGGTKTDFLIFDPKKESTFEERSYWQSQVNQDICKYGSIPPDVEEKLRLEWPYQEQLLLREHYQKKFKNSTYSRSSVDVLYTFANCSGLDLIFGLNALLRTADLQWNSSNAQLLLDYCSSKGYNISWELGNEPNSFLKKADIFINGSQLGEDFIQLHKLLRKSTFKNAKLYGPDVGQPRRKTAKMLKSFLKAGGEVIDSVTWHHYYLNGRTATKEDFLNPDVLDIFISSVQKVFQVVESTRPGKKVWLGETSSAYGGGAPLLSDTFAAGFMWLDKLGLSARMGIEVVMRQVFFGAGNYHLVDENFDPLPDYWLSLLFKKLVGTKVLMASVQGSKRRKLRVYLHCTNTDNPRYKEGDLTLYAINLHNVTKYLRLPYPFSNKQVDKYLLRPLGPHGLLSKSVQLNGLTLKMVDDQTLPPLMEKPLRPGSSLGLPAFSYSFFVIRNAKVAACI
Protocol: Initially, cross species binding to human, murine and cynomolgus heparanase was determined in an ELISA assay in which heparanase was captured onto plates using a rabbit anti-heparanase antibody (Raybiotech, Cat. IP-14-155). Exhaustive supernatants were added to the plates at a final dilution of 1:5 and bound antibody detected with a rabbit anti-human IgG Fc.

Recombinant Hpa1 = target: T3, Recombinant Hpa1 (Homo sapiens, UniProt Q9Y251); experiment: Medium resolution Biacore affinity; assay type: binding; conditions: purified antibody captured on CM4 chip; Hpa1 1 nM and 10 nM; 25° C.
T3 construct: Heparanase 8 and 50 kDa sub-units were cloned into pacGP67 as Sma 1-EcoR1 fragments; made in house; host or cells: Hi5 insect cells, baculovirus (pFastBac Dual)
T3 sequence (Q9Y251 158-543 limits assumed): T1 sequence (Q9Y251 158-543 limits assumed)
T3 sequence (Q9Y251 36-109 limits assumed): T1 sequence (Q9Y251 36-109 limits assumed)
Protocol: For medium resolution Biacore™ tests, cloned and purified antibodies were used. Each of three purified antibodies (10E9.1, 15A1.2, and 15A11.1) were captured onto a high-density goat anti-human antibody surface over a CM4 Biacore™ chip. Recombinant Hpa1 was diluted to the desired concentration (1 nM and 10 nM) in 10 mM HEPES, 150 mM NaCl, 0.005% tween-20, 0.1 mg per ml BSA pH7.4 (25° C.) immediately prior to injection. Data were fit globally to a 1:1 interaction model with a term for mass transport included. The resulting KD values are summarised below in Table 4.

[2] = system: HT1080 human fibrosarcoma cells; experiment: FACS binding to cell surface heparanase, HT1080; assay type: cell-based; conditions: 5 or 10 μg per ml, 2 hrs at 37° C.
Protocol: (§1) Although heparanase is found as a secreted protein, a proportion of heparanase is found in conjunction with cell surface heparan sulfate. The ability of anti-human heparanase antibodies to bind to cell surface heparanase was tested in a FACS assay. HT1080 human fibrosarcoma cells, HCT116 human colorectal tumour cells and B16F10 AP3 murine melanoma cells were each seeded into 6-well plates and cultured for 48 hrs prior to the addition of anti-heparanase antibody 10E9.1 or control IgG2 antibody (Sigma Cat. No. 1504-1MG). Antibodies were added to the cells to a final concentration of 5 or 10 μg per ml and incubated with the cells for 2 hrs at 37° C. The cells were then washed with phosphate buffered saline (PBS) and harvested by incubation with trypsin. The cells were pelleted by centrifugation and resuspended in 0.5 ml PBS, 0.1% BSA containing 1/200 dilution of AlexaFluor 488 anti-human IgG. The cells were incubated for 1 hr at room temperature, washed with PBS/BSA, resuspended in PBS and analysed by FACS. […] The differences likely reflect a lower affinity for murine heparanase in addition to any differences in absolute heparanase expression.

[3] = system: B16F10 AP3 murine melanoma cells; experiment: FACS binding to cell surface heparanase, B16F10 AP3; assay type: cell-based; conditions: 5 or 10 μg per ml, 2 hrs at 37° C.
Protocol: as §1

B1: 10E9.1: fully human anti-heparanase monoclonal antibody, G2κ; VH SEQ ID NO 2, VL SEQ ID NO 4; ATCC PTA-9489 (antibody, listed as Homo Sapiens, V domains shown)
VH: QVQLVQSGAEVKKPGASVKVSCKVSGYSLTELSIHWVRQAPGKGLEWMGGFDPEDGEIIFAQKFQGRVTLTEDISLDTAYMEVSSLRSEDTAVYYCATEGHDSGDYVGYYYYGLDVWGQGTTVTVSS
VL: DIQMTQSPSSLSASVGDRVTITCRASQDIRNFLAWYQQKPGKLPKLLIYAASTLQSGVPSRFSGSGSGTDFTLTISSLQPEDVASYYCQSHNSVPFTFGPGTKVDIR
notes: fully human anti-heparanase monoclonal antibody, G2κ; ATCC PTA-9489
Binding to captured heparanase [1]: 0.87 OD units
Binding to heparanase Human (human heparanase): 0.63 OD units
ka (Recombinant Hpa1): 2.06e+06 M⁻¹ s⁻¹
kd (Recombinant Hpa1): 0.000112 s⁻¹
Binding to cells by FACS [2]: bind extensively
Binding to cell surface by FACS [3]: bind to the cell surface of B16F10 AP3 murine melanoma cells
